Paper PMC3753675

T1: GST-hHSF1 (human) (UniProt Q00613)
T1 sequence: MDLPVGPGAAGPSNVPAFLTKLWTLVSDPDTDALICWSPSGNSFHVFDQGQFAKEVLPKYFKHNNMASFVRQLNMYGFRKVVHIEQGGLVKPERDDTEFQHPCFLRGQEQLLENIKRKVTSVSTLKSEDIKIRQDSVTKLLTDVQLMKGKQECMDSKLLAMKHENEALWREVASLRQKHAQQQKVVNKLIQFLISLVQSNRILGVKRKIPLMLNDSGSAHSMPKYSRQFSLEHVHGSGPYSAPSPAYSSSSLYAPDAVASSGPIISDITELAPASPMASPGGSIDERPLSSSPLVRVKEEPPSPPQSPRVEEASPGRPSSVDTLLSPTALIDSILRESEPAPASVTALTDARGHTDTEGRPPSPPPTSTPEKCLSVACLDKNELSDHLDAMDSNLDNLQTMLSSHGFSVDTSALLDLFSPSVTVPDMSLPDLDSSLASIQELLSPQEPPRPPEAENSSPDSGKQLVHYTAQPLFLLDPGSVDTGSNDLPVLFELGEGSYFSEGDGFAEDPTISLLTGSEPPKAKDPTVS

T2: GST-hHSF2 (human) (UniProt Q03933)
T2 sequence: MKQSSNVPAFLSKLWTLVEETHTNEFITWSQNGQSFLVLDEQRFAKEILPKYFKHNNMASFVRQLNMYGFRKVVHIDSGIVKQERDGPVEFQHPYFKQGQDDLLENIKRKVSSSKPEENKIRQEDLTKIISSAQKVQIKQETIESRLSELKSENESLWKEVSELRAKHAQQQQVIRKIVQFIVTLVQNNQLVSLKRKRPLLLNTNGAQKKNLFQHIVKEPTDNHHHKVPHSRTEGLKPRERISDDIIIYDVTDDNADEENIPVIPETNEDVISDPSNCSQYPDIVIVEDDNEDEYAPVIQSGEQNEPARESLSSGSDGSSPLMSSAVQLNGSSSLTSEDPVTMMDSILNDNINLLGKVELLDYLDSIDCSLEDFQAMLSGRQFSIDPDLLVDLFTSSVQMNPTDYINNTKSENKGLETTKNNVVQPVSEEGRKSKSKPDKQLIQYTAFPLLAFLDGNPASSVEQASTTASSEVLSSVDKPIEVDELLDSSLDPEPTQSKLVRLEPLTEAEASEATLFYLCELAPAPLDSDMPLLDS

T3: dHSF (Drosophila melanogaster, UniProt P22813 1-691)
T3 sequence: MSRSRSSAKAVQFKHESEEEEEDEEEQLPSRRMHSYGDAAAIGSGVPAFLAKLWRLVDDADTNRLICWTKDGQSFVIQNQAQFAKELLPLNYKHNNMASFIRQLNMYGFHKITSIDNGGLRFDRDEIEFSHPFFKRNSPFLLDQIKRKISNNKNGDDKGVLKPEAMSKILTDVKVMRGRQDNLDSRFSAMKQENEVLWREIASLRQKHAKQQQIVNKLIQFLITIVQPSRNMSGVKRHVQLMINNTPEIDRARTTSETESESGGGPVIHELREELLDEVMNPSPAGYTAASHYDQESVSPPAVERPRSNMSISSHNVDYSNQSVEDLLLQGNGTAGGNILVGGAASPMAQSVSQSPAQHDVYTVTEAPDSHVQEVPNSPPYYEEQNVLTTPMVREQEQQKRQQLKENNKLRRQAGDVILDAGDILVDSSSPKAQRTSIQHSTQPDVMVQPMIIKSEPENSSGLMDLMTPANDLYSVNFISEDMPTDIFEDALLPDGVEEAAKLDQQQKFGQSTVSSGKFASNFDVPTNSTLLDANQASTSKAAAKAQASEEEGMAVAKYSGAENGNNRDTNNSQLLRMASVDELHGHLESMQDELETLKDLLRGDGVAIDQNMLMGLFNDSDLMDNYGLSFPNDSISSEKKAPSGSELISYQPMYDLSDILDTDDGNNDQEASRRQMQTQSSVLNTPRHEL


Columns and labels:
Assay in all cases: EMSA
GST-hHSF1 (human) = target: T1, GST-hHSF1 (human); settings: binding buffer ([…], room temperature 2 h
GST-hHSF2 (human) = target: T2, GST-hHSF2 (human); settings: binding buffer ([…], room temperature 2 h
dHSF = target: T3, dHSF

Molecule	Kd (GST-hHSF1 (human)) [nM]	Kd (GST-hHSF2 (human)) [nM]	Kd (dHSF) [nM]
GGGAAUGGAUCCACAUCUACGAAUUCCACUCCAUAGUAUCUAGAAGCCCUGCCGAAAACGAGAGCGCUUACGCUUAUAAAUGAUCAACCUACCUCGUUCACUGCAGACUUGACGAAGCUU [hHSF1-R5-1]	< 20	< 20	
GGGAAUGGAUCCACAUCUACGAAUUCAAUCAAGUCCCCAGACUCAGCAACACUGGACAGCGAUAUGCAGAUAACCAAGACCAAUUCACUCCAGUUCACUGCAGACUUGACGAAGCUU [hHSF2-R5-2]	< 20	< 20	
hHSF2-R5-2 (structured_RNA) RNA: GGGAAUGGAUCCACAUCUACGAAUUCAAUCAAGUCCCCAGACUCAGCAACACUGGACAGCGAUAUGCAGAUAACCAAGACCAAUUCACUCCAGUUCACUGCAGACUUGACGAAGCUU			~70
hHSF1-R5-1 (structured_RNA) RNA: GGGAAUGGAUCCACAUCUACGAAUUCCACUCCAUAGUAUCUAGAAGCCCUGCCGAAAACGAGAGCGCUUACGCUUAUAAAUGAUCAACCUACCUCGUUCACUGCAGACUUGACGAAGCUU			~70
